Target: T1, GST-CCT4 (Drosophila, UniProt Q9VK69 1-533)
T1 construct: CCT4, Drosophila; source: E. coli BL21 (IPTG-inducible), purified using a standard method
T1 sequence (looked up): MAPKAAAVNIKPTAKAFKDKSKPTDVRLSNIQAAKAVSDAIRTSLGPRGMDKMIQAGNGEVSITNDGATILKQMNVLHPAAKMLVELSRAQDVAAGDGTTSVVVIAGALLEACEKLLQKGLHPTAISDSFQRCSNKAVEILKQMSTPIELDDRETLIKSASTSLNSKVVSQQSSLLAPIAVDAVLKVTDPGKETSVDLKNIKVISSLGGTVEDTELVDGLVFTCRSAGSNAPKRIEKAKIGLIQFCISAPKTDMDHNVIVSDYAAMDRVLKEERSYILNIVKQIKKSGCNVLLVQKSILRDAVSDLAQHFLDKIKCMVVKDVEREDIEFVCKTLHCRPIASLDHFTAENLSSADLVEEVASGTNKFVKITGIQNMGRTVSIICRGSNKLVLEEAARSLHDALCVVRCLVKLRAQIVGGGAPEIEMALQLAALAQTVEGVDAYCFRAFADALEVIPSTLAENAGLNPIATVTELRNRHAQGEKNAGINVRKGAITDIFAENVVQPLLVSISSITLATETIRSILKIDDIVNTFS
Assay: pull-down; MBP-pulldown of MBP-tagged bait with GST-CCT4; pulldown buffer 20 mM Tris pH 7.5, 150 mM NaCl, 0.5 mM EDTA, 10% glycerol, 0.1% Triton X-100, 1 mM DTT; blots with anti-MBP and anti-GST
Details: both partners purified

B1: MBP-Rheb (natural protein, Drosophila, UniProt Q9VND8 1-182, looked up)
chain: MPTKERHIAMMGYRSVGKSSLCIQFVEGQFVDSYDPTIENTFTKIERVKSQDYIVKLIDTAGQDEYSIFPVQYSMDYHGYVLVYSITSQKSFEVVKIIYEKLLDVMGKKYVPVVLVGNKIDLHQERTVSTEEGKKLAESWRAAFLETSAKQNESVGDIFHQLLILIENENGNPQEKSGCLVS
notes: also called full-length Rheb; source: E. coli BL21 (IPTG-inducible), purified using a standard method
B1: binds.
